According to PMC4527729, “The Inner Membrane Protein PilG Interacts with DNA and the Secretin PilQ in Transformation”:

Tests used:
Conditions in all cases: protein: recombinant; tags: C-terminal 6xHis; label: 32P end label; blunt
PilG RKK43-45AAA = PilG RKK43-45AAA (Neisseria meningitidis MC58, UniProt Q7DDR1 1-410, R43A;K44A;K45A); experiment: EMSA; extrapolated; about 50% bound at 5 uM per text; Optimized EMSA: 50 mM HEPES pH 7.5, 100 mM NaCl, 5 mM MgCl2, 1 mM DTT, 10% glycerol, 0.05% DDM, on ice 15 min, 0.45 nM DNA; first EMSA: 25 mM NaH2PO4 pH 8.0, 150 mM NaCl, 1 mM DTT, 10% glycerol, 0.05% DDM, on ice
PilG SS62-63AA = PilG SS62-63AA (Neisseria meningitidis MC58, UniProt Q7DDR1 1-410, S62A;S63A); experiment: South-western; same as FL; Optimized EMSA: 50 mM HEPES pH 7.5, 100 mM NaCl, 5 mM MgCl2, 1 mM DTT, 10% glycerol, 0.05% DDM, on ice 15 min, 0.45 nM DNA; first EMSA: 25 mM NaH2PO4 pH 8.0, 150 mM NaCl, 1 mM DTT, 10% glycerol, 0.05% DDM, on ice
PilG Q55A = PilG Q55A (Neisseria meningitidis MC58, UniProt Q7DDR1 1-410, Q55A); experiment: as above
PilG1-178 = PilG1-178 (Neisseria meningitidis MC58, UniProt Q7DDR1 1-178); experiment: EMSA; 5 mM MgCl2; DUS+ duplex assigned by Table 2 EMSA footnote; Optimized EMSA: 50 mM HEPES pH 7.5, 100 mM NaCl, 5 mM MgCl2, 1 mM DTT, 10% glycerol, 0.05% DDM, on ice 15 min, 0.45 nM DNA; first EMSA: 25 mM NaH2PO4 pH 8.0, 150 mM NaCl, 1 mM DTT, 10% glycerol, 0.05% DDM, on ice
PilG EEE39-41AAA = PilG EEE39-41AAA (Neisseria meningitidis MC58, UniProt Q7DDR1 1-410, E39A;E40A;E41A); experiment: South-western; increased vs FL per text; Optimized EMSA: 50 mM HEPES pH 7.5, 100 mM NaCl, 5 mM MgCl2, 1 mM DTT, 10% glycerol, 0.05% DDM, on ice 15 min, 0.45 nM DNA; first EMSA: 25 mM NaH2PO4 pH 8.0, 150 mM NaCl, 1 mM DTT, 10% glycerol, 0.05% DDM, on ice
PilG FL = PilG FL (Neisseria meningitidis MC58, UniProt Q7DDR1 1-410); experiment: EMSA; optimized EMSA; R2 0.96?; Optimized EMSA: 50 mM HEPES pH 7.5, 100 mM NaCl, 5 mM MgCl2, 1 mM DTT, 10% glycerol, 0.05% DDM, on ice 15 min, 0.45 nM DNA; first EMSA: 25 mM NaH2PO4 pH 8.0, 150 mM NaCl, 1 mM DTT, 10% glycerol, 0.05% DDM, on ice
PilG166-410 = PilG166-410 (Neisseria meningitidis MC58, UniProt Q7DDR1 166-410); experiment: South-western; Optimized EMSA: 50 mM HEPES pH 7.5, 100 mM NaCl, 5 mM MgCl2, 1 mM DTT, 10% glycerol, 0.05% DDM, on ice 15 min, 0.45 nM DNA; first EMSA: 25 mM NaH2PO4 pH 8.0, 150 mM NaCl, 1 mM DTT, 10% glycerol, 0.05% DDM, on ice
PilG257-410 = PilG257-410 (Neisseria meningitidis MC58, UniProt Q7DDR1 257-410); experiment: as above
PilG30-80 = PilG30-80 (Neisseria meningitidis MC58, UniProt Q7DDR1 30-80); experiment: as above
PilG1-60 = PilG1-60 (Neisseria meningitidis MC58, UniProt Q7DDR1 1-60); experiment: as above
PilG1-80 = PilG1-80 (Neisseria meningitidis MC58, UniProt Q7DDR1 1-80); experiment: EMSA; 5 mM MgCl2; Optimized EMSA: 50 mM HEPES pH 7.5, 100 mM NaCl, 5 mM MgCl2, 1 mM DTT, 10% glycerol, 0.05% DDM, on ice 15 min, 0.45 nM DNA; first EMSA: 25 mM NaH2PO4 pH 8.0, 150 mM NaCl, 1 mM DTT, 10% glycerol, 0.05% DDM, on ice

B1: HH7HH8 (dsDNA)
DNA 1: AACAACAACAAATGCCGTCTGAACCAACATGCCGTCTGAAAACAACAACAAC
DNA 2: GTTGTTGTTGTTTTCAGACGGCATGTTGGTTCAGACGGCATTTGTTGTTGTT
B1 was tested, and the “apparent K (half saturation)” value (PilG RKK43-45AAA) was roughly 685 µM, the binding result (PilG SS62-63AA) was “binds” and the binding result (PilG Q55A) was “binds”. The “apparent K (half saturation)” value (PilG1-178) was 269 nM, the binding result (PilG EEE39-41AAA) was “binds” and the “apparent K (half saturation)” value (PilG FL) was 1070 nM. B1: no binding (PilG166-410); no binding (PilG257-410); no binding (PilG30-80). The binding result (PilG1-60) was “no binding” and the “apparent K (half saturation)” value (PilG1-80) was 283 nM.
